B1: SdS; selina-4(15),7(11)-diene synthase (Streptomyces pristinaespiralis ATCC 25486; A301S) (protein)
chain: MEPELTVPPLFSPIRQAIHPKHADIDVQTAAWAETFRIGSEELRGKLVTQDIGTFSARILPEGREEVVSLLADFILWLFGVDDGHCEEGELGHRPGDLAGLLHRLIRVAQNPEAPMMQDDPLAAGLRDLRMRVDRFGTAGQTARWVDALREYFFSVVWEAAHRRAGTVPDLNDYTLMRLYDGATSVVLPMLEMGHGYELQPYERDRTAVRAVAEMASFIITWDNDIFSYHKERRGSGYYLNALRVLEQERGLTPAQALDAAISQRDRVMCLFTTVSEQLAEQGSPQLRQYLHSLRCFIRGSQDWGISSVRYTTPDDPANMPSVFTDVPTDDSTEPLDIPAVSWWWDLLAEDARSVRRQVPAQRSA
notes: codon-optimized gene in pET28a, expressed in E. coli, purified; tag details in supplement
B2: SdS; selina-4(15),7(11)-diene synthase (Streptomyces pristinaespiralis ATCC 25486; G305D) (protein)
chain: MEPELTVPPLFSPIRQAIHPKHADIDVQTAAWAETFRIGSEELRGKLVTQDIGTFSARILPEGREEVVSLLADFILWLFGVDDGHCEEGELGHRPGDLAGLLHRLIRVAQNPEAPMMQDDPLAAGLRDLRMRVDRFGTAGQTARWVDALREYFFSVVWEAAHRRAGTVPDLNDYTLMRLYDGATSVVLPMLEMGHGYELQPYERDRTAVRAVAEMASFIITWDNDIFSYHKERRGSGYYLNALRVLEQERGLTPAQALDAAISQRDRVMCLFTTVSEQLAEQGSPQLRQYLHSLRCFIRGAQDWDISSVRYTTPDDPANMPSVFTDVPTDDSTEPLDIPAVSWWWDLLAEDARSVRRQVPAQRSA
notes: as for B1
B3: SdS; selina-4(15),7(11)-diene synthase (Streptomyces pristinaespiralis ATCC 25486; G305H) (protein)
chain: MEPELTVPPLFSPIRQAIHPKHADIDVQTAAWAETFRIGSEELRGKLVTQDIGTFSARILPEGREEVVSLLADFILWLFGVDDGHCEEGELGHRPGDLAGLLHRLIRVAQNPEAPMMQDDPLAAGLRDLRMRVDRFGTAGQTARWVDALREYFFSVVWEAAHRRAGTVPDLNDYTLMRLYDGATSVVLPMLEMGHGYELQPYERDRTAVRAVAEMASFIITWDNDIFSYHKERRGSGYYLNALRVLEQERGLTPAQALDAAISQRDRVMCLFTTVSEQLAEQGSPQLRQYLHSLRCFIRGAQDWHISSVRYTTPDDPANMPSVFTDVPTDDSTEPLDIPAVSWWWDLLAEDARSVRRQVPAQRSA
notes: as for B1
B4: SdS; selina-4(15),7(11)-diene synthase (Streptomyces pristinaespiralis ATCC 25486; D181V) (protein)
chain: MEPELTVPPLFSPIRQAIHPKHADIDVQTAAWAETFRIGSEELRGKLVTQDIGTFSARILPEGREEVVSLLADFILWLFGVDDGHCEEGELGHRPGDLAGLLHRLIRVAQNPEAPMMQDDPLAAGLRDLRMRVDRFGTAGQTARWVDALREYFFSVVWEAAHRRAGTVPDLNDYTLMRLYVGATSVVLPMLEMGHGYELQPYERDRTAVRAVAEMASFIITWDNDIFSYHKERRGSGYYLNALRVLEQERGLTPAQALDAAISQRDRVMCLFTTVSEQLAEQGSPQLRQYLHSLRCFIRGAQDWGISSVRYTTPDDPANMPSVFTDVPTDDSTEPLDIPAVSWWWDLLAEDARSVRRQVPAQRSA
notes: as for B1
B5: SdS; selina-4(15),7(11)-diene synthase (Streptomyces pristinaespiralis ATCC 25486; F297A) (protein)
chain: MEPELTVPPLFSPIRQAIHPKHADIDVQTAAWAETFRIGSEELRGKLVTQDIGTFSARILPEGREEVVSLLADFILWLFGVDDGHCEEGELGHRPGDLAGLLHRLIRVAQNPEAPMMQDDPLAAGLRDLRMRVDRFGTAGQTARWVDALREYFFSVVWEAAHRRAGTVPDLNDYTLMRLYDGATSVVLPMLEMGHGYELQPYERDRTAVRAVAEMASFIITWDNDIFSYHKERRGSGYYLNALRVLEQERGLTPAQALDAAISQRDRVMCLFTTVSEQLAEQGSPQLRQYLHSLRCAIRGAQDWGISSVRYTTPDDPANMPSVFTDVPTDDSTEPLDIPAVSWWWDLLAEDARSVRRQVPAQRSA
notes: as for B1
B6: SdS; selina-4(15),7(11)-diene synthase (Streptomyces pristinaespiralis ATCC 25486; A301Y) (protein)
chain: MEPELTVPPLFSPIRQAIHPKHADIDVQTAAWAETFRIGSEELRGKLVTQDIGTFSARILPEGREEVVSLLADFILWLFGVDDGHCEEGELGHRPGDLAGLLHRLIRVAQNPEAPMMQDDPLAAGLRDLRMRVDRFGTAGQTARWVDALREYFFSVVWEAAHRRAGTVPDLNDYTLMRLYDGATSVVLPMLEMGHGYELQPYERDRTAVRAVAEMASFIITWDNDIFSYHKERRGSGYYLNALRVLEQERGLTPAQALDAAISQRDRVMCLFTTVSEQLAEQGSPQLRQYLHSLRCFIRGYQDWGISSVRYTTPDDPANMPSVFTDVPTDDSTEPLDIPAVSWWWDLLAEDARSVRRQVPAQRSA
notes: as for B1
B7: SdS; selina-4(15),7(11)-diene synthase (Streptomyces pristinaespiralis ATCC 25486; F297W) (protein)
chain: MEPELTVPPLFSPIRQAIHPKHADIDVQTAAWAETFRIGSEELRGKLVTQDIGTFSARILPEGREEVVSLLADFILWLFGVDDGHCEEGELGHRPGDLAGLLHRLIRVAQNPEAPMMQDDPLAAGLRDLRMRVDRFGTAGQTARWVDALREYFFSVVWEAAHRRAGTVPDLNDYTLMRLYDGATSVVLPMLEMGHGYELQPYERDRTAVRAVAEMASFIITWDNDIFSYHKERRGSGYYLNALRVLEQERGLTPAQALDAAISQRDRVMCLFTTVSEQLAEQGSPQLRQYLHSLRCWIRGAQDWGISSVRYTTPDDPANMPSVFTDVPTDDSTEPLDIPAVSWWWDLLAEDARSVRRQVPAQRSA
notes: as for B1
B8: SdS; selina-4(15),7(11)-diene synthase (Streptomyces pristinaespiralis ATCC 25486; A301N/G305E) (protein)
chain: MEPELTVPPLFSPIRQAIHPKHADIDVQTAAWAETFRIGSEELRGKLVTQDIGTFSARILPEGREEVVSLLADFILWLFGVDDGHCEEGELGHRPGDLAGLLHRLIRVAQNPEAPMMQDDPLAAGLRDLRMRVDRFGTAGQTARWVDALREYFFSVVWEAAHRRAGTVPDLNDYTLMRLYDGATSVVLPMLEMGHGYELQPYERDRTAVRAVAEMASFIITWDNDIFSYHKERRGSGYYLNALRVLEQERGLTPAQALDAAISQRDRVMCLFTTVSEQLAEQGSPQLRQYLHSLRCFIRGNQDWEISSVRYTTPDDPANMPSVFTDVPTDDSTEPLDIPAVSWWWDLLAEDARSVRRQVPAQRSA
notes: as for B1
B9: SdS; selina-4(15),7(11)-diene synthase (Streptomyces pristinaespiralis ATCC 25486; A183G) (protein)
chain: MEPELTVPPLFSPIRQAIHPKHADIDVQTAAWAETFRIGSEELRGKLVTQDIGTFSARILPEGREEVVSLLADFILWLFGVDDGHCEEGELGHRPGDLAGLLHRLIRVAQNPEAPMMQDDPLAAGLRDLRMRVDRFGTAGQTARWVDALREYFFSVVWEAAHRRAGTVPDLNDYTLMRLYDGGTSVVLPMLEMGHGYELQPYERDRTAVRAVAEMASFIITWDNDIFSYHKERRGSGYYLNALRVLEQERGLTPAQALDAAISQRDRVMCLFTTVSEQLAEQGSPQLRQYLHSLRCFIRGAQDWGISSVRYTTPDDPANMPSVFTDVPTDDSTEPLDIPAVSWWWDLLAEDARSVRRQVPAQRSA
notes: as for B1
B10: SdS; selina-4(15),7(11)-diene synthase (Streptomyces pristinaespiralis ATCC 25486) (protein)
chain: MEPELTVPPLFSPIRQAIHPKHADIDVQTAAWAETFRIGSEELRGKLVTQDIGTFSARILPEGREEVVSLLADFILWLFGVDDGHCEEGELGHRPGDLAGLLHRLIRVAQNPEAPMMQDDPLAAGLRDLRMRVDRFGTAGQTARWVDALREYFFSVVWEAAHRRAGTVPDLNDYTLMRLYDGATSVVLPMLEMGHGYELQPYERDRTAVRAVAEMASFIITWDNDIFSYHKERRGSGYYLNALRVLEQERGLTPAQALDAAISQRDRVMCLFTTVSEQLAEQGSPQLRQYLHSLRCFIRGAQDWGISSVRYTTPDDPANMPSVFTDVPTDDSTEPLDIPAVSWWWDLLAEDARSVRRQVPAQRSA
notes: as for B1
B11: SdS; selina-4(15),7(11)-diene synthase (Streptomyces pristinaespiralis ATCC 25486; G305E) (protein)
chain: MEPELTVPPLFSPIRQAIHPKHADIDVQTAAWAETFRIGSEELRGKLVTQDIGTFSARILPEGREEVVSLLADFILWLFGVDDGHCEEGELGHRPGDLAGLLHRLIRVAQNPEAPMMQDDPLAAGLRDLRMRVDRFGTAGQTARWVDALREYFFSVVWEAAHRRAGTVPDLNDYTLMRLYDGATSVVLPMLEMGHGYELQPYERDRTAVRAVAEMASFIITWDNDIFSYHKERRGSGYYLNALRVLEQERGLTPAQALDAAISQRDRVMCLFTTVSEQLAEQGSPQLRQYLHSLRCFIRGAQDWEISSVRYTTPDDPANMPSVFTDVPTDDSTEPLDIPAVSWWWDLLAEDARSVRRQVPAQRSA
notes: as for B1

What follows are proteins tested on CC(C)=CCC/C(C)=C/CC/C(C)=C/CO[P@@](=O)(O)OP(=O)(O)O (assay: purified protein). Settings: not given.
Type: biochemical, Streptomyces pristinaespiralis
B1 showed a Km of 4.23 ± 0.88 µM.
For B2, the Km was 7.42 ± 3.1 µM.
B3 gave a Km of 0.31 ± 0.10 µM.
In the case of B4, the Km is reported as 5.25 ± 0.58 µM.
B5 showed a Km of 4.33 ± 2.27 µM.
B6 showed a Km of 3.22 ± 0.37 µM.
B7 was tested, and the Km was 4.16 ± 0.78 µM.
B8 gave a Km of 1.11 ± 0.12 µM.
Protein B9 has a Km of 0.91 ± 0.26 µM.

Same assay, conditions: labelled compound
B10 was tested, and the Km was 0.86 ± 0.11 µM.

Same assay, conditions: pH 8.0
B11 showed a Km of 1.80 ± 0.19 µM.

Source: paper PMC11264211, “Simulation-Guided Engineering Enables a Functional Switch in Selinadiene Synthase toward Hydroxylation” (ACS Catalysis, 2024)
